This is an account of results in patent US20140303084A1 (Biogen, published 2014).

To fix the notation:
B1: RRAP-Sar-KLTCLASYCWLFWTGIA (peptide)
peptide: RRAP[Sar]KLTCLASYCWLFWTGIA
modifications: not fully specified; printed as RRAP-Sar-KLTCLASYCWLFWTGIA; cysteine pairing not given here
B2: RRaPGKLTCLASYCWLFWTGIA (peptide)
peptide: RR[dA]PGKLTCLASYCWLFWTGIA
modifications: not fully specified (bridges); printed as RRaPGKLTCLASYCWLFWTGIA; cysteine pairing not given here
B3: RRAPGKLTCLaSYCWLFWTGIA (peptide)
peptide: RRAPGKLTCL[dA]SYCWLFWTGIA
modifications: not fully specified (bridges); cysteine pairing not given here
B4: RRAPGKLQCLASYCWLFKTGIA (peptide)
peptide: RRAPGKLQCLASYCWLFKTGIA
B5: RRAPGKLTCLASYcWLFWTGIA (peptide)
peptide: RRAPGKLTCLASY[dC]WLFWTGIA
modifications: not fully specified (C-terminus, bridges); printed as RRAPGKLTCLASYcWLFWTGIA; cysteine pairing not given here
B6: RRAPGKLTCLASYCWLFWTGI-MeAla (peptide)
peptide: RRAPGKLTCLASYCWLFWTGI[NMeA]
modifications: not fully specified (C-terminus, bridges); printed as RRAPGKLTCLASYCWLFWTGI-MeAla; cysteine pairing not given here
B7: R-MeArg-APGKLTCLASYCWLFWTGIA (peptide)
peptide: R[NMeR]APGKLTCLASYCWLFWTGIA
modifications: disulfide 9-14 (inferred); not fully specified (C-terminus); printed as R-MeArg-APGKLTCLASYCWLFWTGIA
B8: RRAPGKLTCLA-MeSer-YCWLFWTGIA (peptide)
peptide: RRAPGKLTCLA[NMeS]YCWLFWTGIA
modifications: not fully specified (bridges); printed as RRAPGKLTCLA-MeSer-YCWLFWTGIA; cysteine pairing not given here
B9: RRAPGKL-MeThr-CLASYCWLFWTGIA (peptide)
peptide: RRAPGKL[NMeT]CLASYCWLFWTGIA
modifications: cysteine pairing not given here
B10: RRAPGKLTCLASYCWLFWT-Sar-IA (peptide)
peptide: RRAPGKLTCLASYCWLFWT[Sar]IA
modifications: not fully specified; printed as RRAPGKLTCLASYCWLFWT-Sar-IA; cysteine pairing not given here
B11: RRAPGKLTCLASyCWLFWTGIA (peptide)
peptide: RRAPGKLTCLAS[dY]CWLFWTGIA
modifications: not fully specified (bridges); printed as RRAPGKLTCLASyCWLFWTGIA; cysteine pairing not given here
B12: RRAPGKLTCLASYC-MeTrp-LFWTGIA (peptide)
peptide: RRAPGKLTCLASYC[NMeW]LFWTGIA
modifications: cysteine pairing not given here
B13: RRAPGKLTCLASYCWLfWTGIA (peptide)
peptide: RRAPGKLTCLASYCWL[dF]WTGIA
modifications: not fully specified (C-terminus, bridges); printed as RRAPGKLTCLASYCWLfWTGIA; cysteine pairing not given here
B14: RR-MeAla-PGKLTCLASYCWLFWTGIA (peptide)
peptide: RR[NMeA]PGKLTCLASYCWLFWTGIA
modifications: disulfide 9-14 (inferred); not fully specified (C-terminus); printed as RR-MeAla-PGKLTCLASYCWLFWTGIA
B15: MeArg-RAPGKLTCLASYCWLFWTGIA (peptide)
peptide: [NMeR]RAPGKLTCLASYCWLFWTGIA
modifications: cysteine pairing not given here
B16: compound 21 (peptide)
peptide: PRIRTVGPGSRSASGKLTCLASYCWLFWTGIA-NH2
modifications: cysteine pairing not given here
B17: RRAPGKLTCLASYCWLFWtGIA (peptide)
peptide: RRAPGKLTCLASYCWLFW[dT]GIA
modifications: not fully specified (C-terminus, bridges); printed as RRAPGKLTCLASYCWLFWtGIA; cysteine pairing not given here
B18: RRAPGK-MeLeu-TCLASYCWLFWTGIA (peptide)
peptide: RRAPGK[NMeL]TCLASYCWLFWTGIA
modifications: not fully specified (bridges); printed as RRAPGK-MeLeu-TCLASYCWLFWTGIA; cysteine pairing not given here
B19: RRAPGKLTCLAS-MeTyr-CWLFWTGIA (peptide)
peptide: RRAPGKLTCLAS[NMeY]CWLFWTGIA
modifications: not fully specified (bridges); printed as RRAPGKLTCLAS-MeTyr-CWLFWTGIA; cysteine pairing not given here
B20: RRAPGKLTCLASYCWLFWTG-MeIle-A (peptide)
peptide: RRAPGKLTCLASYCWLFWTG[MeIle]A
modifications: not fully specified (C-terminus, bridges); printed as RRAPGKLTCLASYCWLFWTG-MeIle-A; cysteine pairing not given here
B21: RRAPGKLTClASYCWLFWTGIA (peptide)
peptide: RRAPGKLTC[dL]ASYCWLFWTGIA
modifications: not fully specified (C-terminus, bridges); printed as RRAPGKLTClASYCWLFWTGIA; cysteine pairing not given here
B22: RRAPGKLTCLASYCWlFWTGIA (peptide)
peptide: RRAPGKLTCLASYCW[dL]FWTGIA
modifications: not fully specified (bridges); printed as RRAPGKLTCLASYCWlFWTGIA; cysteine pairing not given here
B23: RRAPGKLtCLASYCWLFWTGIA (peptide)
peptide: RRAPGKL[dT]CLASYCWLFWTGIA
modifications: not fully specified (C-terminus, bridges); printed as RRAPGKLtCLASYCWLFWTGIA; cysteine pairing not given here
B24: RRAPGkLTCLASYCWLFWTGIA (peptide)
peptide: RRAPG[dK]LTCLASYCWLFWTGIA
modifications: disulfide 9-14 (inferred)
B25: RRKPGKLQCLASYCWLFWTGIA (peptide)
peptide: RRKPGKLQCLASYCWLFWTGIA
B26: compound 4 (peptide)
peptide: RRAPGKLTCLASYCWLFWTGIA-NH2
modifications: cysteine pairing not given here
B27: KRAPGKLQCLASYCWLFWTGIA (peptide)
peptide: KRAPGKLQCLASYCWLFWTGIA
B28: RKAPGKLQCLASYCWLFWTGIA (peptide)
peptide: RKAPGKLQCLASYCWLFWTGIA
B29: RRAPGKLTCLAsYCWLFWTGIA (peptide)
peptide: RRAPGKLTCLA[dS]YCWLFWTGIA
modifications: not fully specified (bridges); printed as RRAPGKLTCLAsYCWLFWTGIA; cysteine pairing not given here
B30: RRApGKLTCLASYCWLFWTGIA (peptide)
peptide: RRA[dP]GKLTCLASYCWLFWTGIA
modifications: disulfide 9-14 (inferred)
B31: RRAPGKLTCLASYCW-MeLeu-FWTGIA (peptide)
peptide: RRAPGKLTCLASYCW[NMeL]FWTGIA
modifications: not fully specified (bridges); printed as RRAPGKLTCLASYCW-MeLeu-FWTGIA; cysteine pairing not given here
B32: RRAPGKLTCLASYCWL-MePhe-WTGIA (peptide)
peptide: RRAPGKLTCLASYCWL[NMeF]WTGIA
modifications: not fully specified (bridges); printed as RRAPGKLTCLASYCWL-MePhe-WTGIA; cysteine pairing not given here
B33: compound 23 (peptide)
peptide: PRI[dR]TVGPGS[dR]SASGKLTCLASYCWLFWTGIA-NH2
modifications: cysteine pairing not given here
B34: RRAPKKLQCLASYCWLFWTGIA (peptide)
peptide: RRAPKKLQCLASYCWLFWTGIA
B35: RRAPGKLTC-MeLeu-ASYCWLFWTGIA (peptide)
peptide: RRAPGKLTC[NMeL]ASYCWLFWTGIA
modifications: not fully specified (bridges); printed as RRAPGKLTC-MeLeu-ASYCWLFWTGIA; cysteine pairing not given here
B36: RRAKGKLQCLASYCWLFWTGIA (peptide)
peptide: RRAKGKLQCLASYCWLFWTGIA

Bridge positions count the residues as written; N and C are the ends. Square brackets hold non-standard residues; d marks the D form. Ends that are not written are not given here. NMeW = CN[C@@H](Cc1c[nH]c2ccccc12)C(=O)O; NMeY = CN[C@@H](Cc1ccc(O)cc1)C(=O)O; NMeR = CN[C@@H](CCCNC(=N)N)C(=O)O; NMeF = CN[C@@H](Cc1ccccc1)C(=O)O; NMeT = CN[C@H](C(=O)O)[C@@H](C)O; NMeL = CN[C@@H](CC(C)C)C(=O)O; NMeS = CN[C@@H](CO)C(=O)O; NMeA = CN[C@@H](C)C(=O)O; Sar = CNCC(=O)O

This assay addresses human Factor IXa (human, UniProt P00740 47-191; P00740 227-461). The assay is described as follows: cell-based or functional assay.
In the case of B1, the “EC50 [µM], FXa generation assay” value was less than 0.5 µM.
As for B2, the “EC50 [µM], FXa generation assay” value was more than 1 µM.
On to B3, for which the “EC50 [µM], FXa generation assay” value is more than 1 µM.
In the case of B4, the “EC50 [µM], FXa generation assay” value was more than 10 µM.
Turning to B5, the “EC50 [µM], FXa generation assay” value was more than 1 µM.
On the same count and under the same terms, in the case of B6 it was more than 1 µM.
For B7, the “EC50 [µM], FXa generation assay” value was less than 0.5 µM.
For the molecule B8, the “EC50 [µM], FXa generation assay” value is less than 0.5 µM.
B9: the “EC50 [µM], FXa generation assay” value is more than 1 µM.
Still for that read-out and setting: in the case of B10 it was less than 0.5 µM; in that of B11, less than 0.5 µM; in that of B12, more than 10 µM.
B13: the “EC50 [µM], FXa generation assay” value was less than 0.5 µM.
In the case of B14, the “EC50 [µM], FXa generation assay” value was less than 0.5 µM.
Still for that read-out and setting: in the case of B15 it was more than 1 µM.
B16: the “EC50 [µM], FXa generation assay with hFIXa” value (from here on “EC50 [µM] … with hFIXa”) is less than 0.5 µM.
Take B17: the “EC50 [µM], FXa generation assay” value is less than 0.5 µM.
Consider B18, for which the “EC50 [µM], FXa generation assay” value is more than 1 µM.
As for B19, the “EC50 [µM], FXa generation assay” value was more than 1 µM.
Regarding B20, the “EC50 [µM], FXa generation assay” value was more than 4 µM.
With B21, the “EC50 [µM], FXa generation assay” value was more than 1 µM.
Take B22: the “EC50 [µM], FXa generation assay” value is more than 1 µM.
On the same count and under the same terms, in the case of B23 it was more than 1 µM; in that of B24, less than 0.5 µM.
On to B25, for which the “EC50 [µM], FXa generation assay” value was more than 1 µM.
With B26, the “EC50 [µM] … with hFIXa” value was less than 0.5 µM.
For the molecule B27, the “EC50 [µM], FXa generation assay” value was less than 0.5 µM.
With B28, the “EC50 [µM], FXa generation assay” value is more than 1 µM.
As for B29, the “EC50 [µM], FXa generation assay” value is less than 0.5 µM.
Take B30: the “EC50 [µM], FXa generation assay” value was less than 0.5 µM.
B31: the “EC50 [µM], FXa generation assay” value is more than 10 µM.
In the case of B32, the “EC50 [µM], FXa generation assay” value was more than 1 µM.
For B33, the “EC50 [µM] … with hFIXa” value was less than 0.5 µM.
Consider B34, for which the “EC50 [µM], FXa generation assay” value is more than 1 µM.
For B35, the “EC50 [µM], FXa generation assay” value is more than 1 µM.
As to B36, the “EC50 [µM], FXa generation assay” value is more than 1 µM.
